Substitutions are numbered along the chain they refer to.
T1: pig CD47 (pig, UniProt Q9GKE8 19-303)
T1 construct: whole, on cells; also called CD47 on porcine RBCs
T1 sequence (looked up): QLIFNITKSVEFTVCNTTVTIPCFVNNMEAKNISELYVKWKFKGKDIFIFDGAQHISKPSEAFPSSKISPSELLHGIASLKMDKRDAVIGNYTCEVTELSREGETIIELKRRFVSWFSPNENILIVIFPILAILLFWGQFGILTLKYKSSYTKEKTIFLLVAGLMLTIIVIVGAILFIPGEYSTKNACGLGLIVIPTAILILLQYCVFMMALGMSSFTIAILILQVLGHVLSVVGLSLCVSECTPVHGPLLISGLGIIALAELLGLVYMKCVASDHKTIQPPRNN

T2: rat CD47 (rat, UniProt P97829 19-303)
T2 construct: whole, on cells; also called CD47 on rat RBCs
T2 sequence (looked up): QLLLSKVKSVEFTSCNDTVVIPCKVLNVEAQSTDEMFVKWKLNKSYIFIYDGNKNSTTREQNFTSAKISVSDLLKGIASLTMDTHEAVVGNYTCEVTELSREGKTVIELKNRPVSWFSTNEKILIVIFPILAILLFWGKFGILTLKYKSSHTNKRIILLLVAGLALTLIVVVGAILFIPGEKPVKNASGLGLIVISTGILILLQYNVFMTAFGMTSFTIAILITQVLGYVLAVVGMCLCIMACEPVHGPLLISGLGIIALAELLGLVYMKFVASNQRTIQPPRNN

T3: mouse CD47 (mouse, UniProt Q61735 19-303)
T3 construct: whole, on cells; also called CD47 on mouse RBCs; CD47 on 4T1 cells
T3 sequence (looked up): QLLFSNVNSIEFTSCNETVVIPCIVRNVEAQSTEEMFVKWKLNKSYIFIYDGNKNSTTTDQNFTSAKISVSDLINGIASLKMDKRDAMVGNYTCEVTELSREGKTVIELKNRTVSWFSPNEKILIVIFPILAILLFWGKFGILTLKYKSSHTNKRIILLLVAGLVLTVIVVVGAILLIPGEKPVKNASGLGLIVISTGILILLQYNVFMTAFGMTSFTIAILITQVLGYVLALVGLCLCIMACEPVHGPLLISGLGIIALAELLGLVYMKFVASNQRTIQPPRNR

T4: dog CD47 (dog, UniProt A0A8I3PM61 19-310)
T4 construct: also called CD47 on dog RBCs
T4 sequence: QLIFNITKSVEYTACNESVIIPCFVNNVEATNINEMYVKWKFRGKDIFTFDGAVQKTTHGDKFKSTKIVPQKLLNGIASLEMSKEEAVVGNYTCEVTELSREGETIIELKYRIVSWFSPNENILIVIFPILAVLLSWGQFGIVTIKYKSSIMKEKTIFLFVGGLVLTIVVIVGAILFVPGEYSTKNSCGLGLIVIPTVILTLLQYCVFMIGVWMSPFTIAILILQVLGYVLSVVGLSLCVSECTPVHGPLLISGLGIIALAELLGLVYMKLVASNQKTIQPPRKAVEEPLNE

B1: Clone 9 (pVxK7b-037-hum09-LC / pVxK7b-037-hum09-HC) (antibody, human IgG1, kappa)
heavy: not shown
light: DVVMTQSPLSLPVTLGQPASISCRSSQSLVHSNGNTYLHWYQQKPGKAPKLLIYKVSYRFSGVPDRFSGSGSGTDFTLKISRVEAEDVGVYYCSQNTHVPRTFGQGTKVEIKRTVAAPSVFIFPPSDEQLKSGTASVVCLLNNFYPREAKVQWKVDNALQSGNSQESVTEQDSKDSTYSLSSTLTLSKADYEKHKVYACEVTHQGLSSPVTKSFNRGEC
notes: also called Cl 9
B2: Clone 8 (pVxK7b-037-hum08-LC / pVxK7b-037-hum08-HC) (antibody, human IgG1, kappa)
heavy: not shown
light: B1 light with V2I, S7T, L15P, Q17E
B3: Clone 5 (pVxK7b-037-hum05-LC / pVxK7b-037-hum05-HC) (antibody, human IgG1, kappa)
heavy: not shown
light: B1 light with V2I, S7T, L15P, Q17E, Q42L, K47Q, A48S, K50Q
B4: Clone 10 (pVxK7b-037-hum10-LC / pVxK7b-037-hum10-HC) (antibody, human IgG1, kappa, V domains shown)
VH: QVQLQESGPGLVKPSQTLSLTCTVSGYTFTNYYVFWVRQARGQRLEWIGDINPVNGDTNFNEKFKNRLTISKDTSKNQVVLTMTNMDPVDTATYYCARGGYTMDYWGQGTLVTVSS
VL: DIVMTQTPLSLPVTPGEPASISCRSSQSLVHSNGNTYLHWYLQKPGQSPQLLIYKVSYRFSGVPDRFSGSGSGTDFTLKISRVEAEDVGVYYCSQNTHVPRTFGQGTKVEIKR
B5: Clone 17 (pVxK7b-037-hum17-LC / pVxK7b-037-hum17-HC) (antibody, human IgG1, kappa)
heavy: not shown
light: AIQLTQSPSSLSASVGDRVTITCRSSQSLVHSNGNTYLHWYQQKPGQAPRLLIYKVSYRFSGVPDRFSGSGSGTDFTLKISRVEAEDVGVYYCSQNTHVPRTFGQGTKVEIKRTVAAPSVFIFPPSDEQLKSGTASVVCLLNNFYPREAKVQWKVDNALQSGNSQESVTEQDSKDSTYSLSSTLTLSKADYEKHKVYACEVTHQGLSSPVTKSFNRGEC
B6: Clone 24 (pVxK7b-037-hum24-LC / pVxK7b-037-hum24-HC) (antibody, human IgG1, kappa, V domains shown)
VH: QVQLQESGPGLVKPGATVKISCKVSGYTFTNYYVFWVRQARGQRLEWIGDINPVNGDTNFNEKFKNRVTITADKSTSTAYMELSSLRSEDTAVYYCARGGYTMDYWGQGTLVTVSS
VL: AIQLTQSPSSLSASVGDRVTITCRSSQSLVHSNGNTYLHWYQQKPGQAPRLLIYKVSYRFSGVPSRFSGSGSGTEFTLTISSLQPDDFATYYCSQNTHVPRTFGQGTKVEIKR
notes: also called Cl 24
B7: Clone 4 (pVxK7b-037-hum04-LC / pVxK7b-037-hum04-HC) (antibody, human IgG1, kappa, V domains shown)
VH: QVQLQESGPGLVKPSQTLSLTCTVSGYTFTNYYVFWVRQAPGKGLEWVSDINPVNGDTNFNEKFKNRVTISVDTSKNQFSLKLSSVTAADTAVYYCARGGYTMDYWGQGTLVTVSS
VL: B6 VL with A1D, L4M, Q42L, A48S, R50Q, V63I, S65A, P85S, D86E, T90V
B8: Clone 11 (pVxK7b-037-hum11-LC / pVxK7b-037-hum11-HC) (antibody, human IgG1, kappa, V domains shown)
VH: B6 VH
VL: EIVLTQSPATLSVSPGERATLSCRSSQSLVHSNGNTYLHWYQQKPGQAPRLLIYKVSYRFSGVPSRFSGSGSGTDFTFTISSLEAEDAATYYCSQNTHVPRTFGQGTKVEIKR
notes: also called Cl 11
B9: Clone 7 (pVxK7b-037-hum07-LC / pVxK7b-037-hum07-HC) (antibody, human IgG1, kappa, V domains shown)
VH: B6 VH
VL: B4 VL
B10: Clone 12 (pVxK7b-037-hum12-LC / pVxK7b-037-hum12-HC) (antibody, human IgG1, kappa, V domains shown)
VH: B6 VH
VL: B4 VL with L42Q, Q47K, S48A, Q50K
B11: Clone 16 (pVxK7b-037-hum16-LC / pVxK7b-037-hum16-HC) (antibody, human IgG1, kappa, V domains shown)
VH: QVQLQESGPGLVKPSQTLSLTCTVSGYTFTNYYVFWVRQARGQRLEWIGDINPVNGDTNFNEKFKNRVTISADKSISTAYLQWSSLKASDTAMYYCARGGYTMDYWGQGTLVTVSS
VL: AIQLTQSPSSLSASVGDRVTITCRSSQSLVHSNGNTYLHWYQQKPGQAPRLLIYKVSYRFSGVPDRFSGSGSGTDFTLKISRVEAEDVGVYYCSQNTHVPRTFGQGTKVEIKR

target: T1, pig CD47; experiment: flow cytometry on RBCs, CHO supernatant 10 ng/ml
Procedure: (§1) RBCs are incubated for 60 minutes on ice with tissue culture supernatants containing the secreted humanized antibodies at a concentration of 10 ng/ml in a solution of phosphate buffered saline, pH 7.2, 2.5 mM EDTA (PBS+E), or with various concentrations of purified antibodies. Cells are then washed with cold PBS+E, and incubated for an additional hour on ice with FITC labeled donkey anti-human antibody (Jackson Immuno Research Labs, West Grove, Pa.; Catalogue #709-096-149) in PBS+E. Cells are then washed with PBS+E, and antibody binding is analyzed using a BD FACSAria Cell Sorter (Becton Dickinson) or a C6 Accuri Flow Cytometer (Becton Dickinson). Antibody binding is quantitated by comparison of mean fluorescence values relative to that of chimeric antibody >VxP037-01LC (SEQ ID NO:7))/>VxPO37-01HC (SEQ ID NO:57). The mean fluorescence value for each antibody is divided by the mean fluorescence value for the chimeric antibody.

mean fluorescence relative to chimeric antibody | Binder
1.6 ratio | B1
0.8 ratio | B2
1.2 ratio | B3
1.5 ratio | B4
1.3 ratio | B5
1.1 ratio | B6
0.6 ratio | B7
1.2 ratio | B8
0.9 ratio | B9
1.4 ratio | B10
1.1 ratio | B11

target: T2, rat CD47; experiment: flow cytometry on RBCs, CHO supernatant 10 ng/ml
Procedure: as §1

mean fluorescence relative to chimeric antibody | Binder
3.7 ratio | B1
1.2 ratio | B2
2.2 ratio | B3
2.9 ratio | B4
2.1 ratio | B5
1.2 ratio | B6
1 ratio | B7
1.2 ratio | B8
0.8 ratio | B9
1.3 ratio | B10
2.1 ratio | B11

target: T5, human CD47 (human, UniProt Q08722 19-323); experiment: flow cytometry on RBCs, CHO supernatant 10 ng/ml
T5 construct: whole, on cells; also called CD47 on human RBCs; CD47 on OV10 cells
T5 sequence (Q08722 19-323): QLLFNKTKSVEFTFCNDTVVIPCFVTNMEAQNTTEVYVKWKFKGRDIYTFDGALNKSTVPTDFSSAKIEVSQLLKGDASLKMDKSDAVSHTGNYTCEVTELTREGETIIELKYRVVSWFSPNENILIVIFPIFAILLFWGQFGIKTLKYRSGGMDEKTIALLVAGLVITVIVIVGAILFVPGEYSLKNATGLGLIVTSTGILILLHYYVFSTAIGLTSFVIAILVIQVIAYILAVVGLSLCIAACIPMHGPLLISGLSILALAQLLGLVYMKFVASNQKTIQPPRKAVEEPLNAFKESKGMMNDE
Procedure: as §1

mean fluorescence relative to chimeric antibody | Binder
1.2 ratio | B1
0.7 ratio | B2
1 ratio | B3
1.1 ratio | B4
0.8 ratio | B5
0.8 ratio | B6
0.6 ratio | B7
0.8 ratio | B8
0.5 ratio | B9
0.8 ratio | B10
0.9 ratio | B11

target: T3, mouse CD47; experiment: flow cytometry on RBCs, CHO supernatant 10 ng/ml
Procedure: as §1

mean fluorescence relative to chimeric antibody | Binder
1.4 ratio | B1
0.7 ratio | B2
1 ratio | B3
1.2 ratio | B4
0.9 ratio | B5
0.7 ratio | B6
0.6 ratio | B7
0.7 ratio | B8
0.4 ratio | B9
0.6 ratio | B10
1 ratio | B11

target: T4, dog CD47; experiment: flow cytometry on RBCs, CHO supernatant 10 ng/ml
Procedure: as §1

mean fluorescence relative to chimeric antibody | Binder
1 ratio | B1
0.8 ratio | B2
1.1 ratio | B3
1.1 ratio | B4
1.3 ratio | B5
1 ratio | B6
0.6 ratio | B7
0.8 ratio | B8
0.8 ratio | B9
0.9 ratio | B10
1.1 ratio | B11
